This test addresses T1, murine NKG2D on NK cells / splenocytes (mouse, UniProt O54709 1-232).
T1 construct: whole, on cells; also called NKG2D receptor
T1 sequence: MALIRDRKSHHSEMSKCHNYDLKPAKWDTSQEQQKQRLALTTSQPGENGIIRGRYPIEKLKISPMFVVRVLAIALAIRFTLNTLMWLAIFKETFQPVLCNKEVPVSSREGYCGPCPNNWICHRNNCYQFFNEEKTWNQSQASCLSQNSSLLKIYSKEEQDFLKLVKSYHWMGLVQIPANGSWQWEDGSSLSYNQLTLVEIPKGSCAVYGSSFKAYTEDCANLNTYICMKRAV
Put plainly: flow cytometry, fluorescently labeled construct on bulk splenocytes at 37° C. On the technique in general: A flow cytometer gives signals particle by particle.

B1: OMCP-mutIL-2 (R38A, F42K, C125S IL2-OMCP construct) (other)
chain: HKLAFNFNLEINGSDTHSTVDVYLDDSQIITFDGKDIRPTIPFMIGDEIFLPFYKNVFSEFFSLFRRVPTSTPYEDLTYFYECDYTDNKSTFDQFYLYNGEEYTVKTQEATNKNMWLTTSEFRLKKWFDGEDCIMHLRSLVRKMEDSKRNTGGTGSSGSSDYKDDDDKHHHHHHHHGSSGSSAPTSSSTKKTQLQLEHLLLDLQMILNGINNYKNPKLTAMLTKKFYMPKKATELKHLQCLEEELKPLEEVLNLAQSKNFHLRPRDLISNINVIVLELKGSETTFMCEYADETATIVEFLNRWITFSQSIISTLT
notes: also called OMCP-mutant IL-2; OMCP-IL2 construct
Regarding B1, the binding result is “binds”.

Values taken from patent US20240092854A1 (WASHINGTON UNIVERSITY, published 2024).
